Experimental data as given in patent publication US20120034160A1 (AbbVie / Abbott, published 2012).
Residue numbers refer to the chain shown, from its start.

T1: Recombinant Human IL-17 (human, UniProt Q16552 20-155, limits assumed)
T1 sequence (looked up): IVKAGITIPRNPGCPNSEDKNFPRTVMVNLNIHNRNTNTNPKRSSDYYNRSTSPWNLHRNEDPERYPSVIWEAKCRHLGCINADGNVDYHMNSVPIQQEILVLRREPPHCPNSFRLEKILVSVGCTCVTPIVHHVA

T2: Recombinant Human IL-17 (human, UniProt Q16552 20-155, limits assumed)
T2 construct: bought reagent
T2 sequence (looked up): T1 sequence (looked up)

B1: DVD1633 (bispecific antibody, human IgG1, kappa)
heavy: not shown
light: DTQVTQSPSSLSASVGDRVTITCITSTDIDVDMNWYQQKPGKPPKLLISQGNTLRPGVPSRFSSSGSGTDFTFTISSLQPEDFATYYCLQSDNLPLTFGQGTKLEIKRTVAAPEIVLTQSPDFQSVTPKEKVTITCRASQDIGSELHWYQQKPDQPPKLLIKYASHSTSGVPSRFSGSGSGTDFTLTINGLEAEDAGTYYCHQTDSLPYTFGPGTKVDIKRTVAAPSVFIFPPSDEQLKSGTASVVCLLNNFYPREAKVQWKVDNALQSGNSQESVTEQDSKDSTYSLSSTLTLSKADYEKHKVYACEVTHQGLSSPVTKSFNRGEC
notes: DVD-Ig: outer AB270, inner AB274; V1/V2 vectors: wild type hIgG1, kappa
B2: DVD1634 (bispecific antibody, human IgG1, kappa)
heavy: not shown
light: EIVLTQSPDFQSVTPKEKVTITCRASQDIGSELHWYQQKPDQPPKLLIKYASHSTSGVPSRFSGSGSGTDFTLTINGLEAEDAGTYYCHQTDSLPYTFGPGTKVDIKRTVAAPDTQVTQSPSSLSASVGDRVTITCITSTDIDVDMNWYQQKPGKPPKLLISQGNTLRPGVPSRFSSSGSGTDFTFTISSLQPEDFATYYCLQSDNLPLTFGQGTKLEIKRTVAAPSVFIFPPSDEQLKSGTASVVCLLNNFYPREAKVQWKVDNALQSGNSQESVTEQDSKDSTYSLSSTLTLSKADYEKHKVYACEVTHQGLSSPVTKSFNRGEC
notes: DVD-Ig: outer AB274, inner AB270; V1/V2 vectors: wild type hIgG1, kappa
B3: DVD1635 (bispecific antibody, human IgG1, kappa)
heavy: not shown
light: DTVVTQSPAFLSVTPGEKVTITCITSTDIDVDMNWYQQKPDQPPKLLISQGNTLRPGVPSRFSSSGSGTDFTFTISSLEAEDAATYYCLQSDNLPLTFGQGTKLEIKRTVAAPEIVLTQSPDFQSVTPKEKVTITCRASQDIGSELHWYQQKPDQPPKLLIKYASHSTSGVPSRFSGSGSGTDFTLTINGLEAEDAGTYYCHQTDSLPYTFGPGTKVDIKRTVAAPSVFIFPPSDEQLKSGTASVVCLLNNFYPREAKVQWKVDNALQSGNSQESVTEQDSKDSTYSLSSTLTLSKADYEKHKVYACEVTHQGLSSPVTKSFNRGEC
notes: DVD-Ig: outer AB271, inner AB274; V1/V2 vectors: wild type hIgG1, kappa
B4: DVD1636 (bispecific antibody, human IgG1, kappa)
heavy: not shown
light: EIVLTQSPDFQSVTPKEKVTITCRASQDIGSELHWYQQKPDQPPKLLIKYASHSTSGVPSRFSGSGSGTDFTLTINGLEAEDAGTYYCHQTDSLPYTFGPGTKVDIKRTVAAPDTVVTQSPAFLSVTPGEKVTITCITSTDIDVDMNWYQQKPDQPPKLLISQGNTLRPGVPSRFSSSGSGTDFTFTISSLEAEDAATYYCLQSDNLPLTFGQGTKLEIKRTVAAPSVFIFPPSDEQLKSGTASVVCLLNNFYPREAKVQWKVDNALQSGNSQESVTEQDSKDSTYSLSSTLTLSKADYEKHKVYACEVTHQGLSSPVTKSFNRGEC
notes: DVD-Ig: outer AB274, inner AB271; V1/V2 vectors: wild type hIgG1, kappa
B5: DVD1637 (bispecific antibody, human IgG1, kappa)
heavy: not shown
light: B1 light with D1E, Q3T
notes: DVD-Ig: outer AB272, inner AB274; V1/V2 vectors: wild type hIgG1, kappa
B6: DVD1639 (bispecific antibody, human IgG1, kappa)
heavy: not shown
light: DIQMTQSPSSLSASVGDRVTITCRASGNIHNYLTWYQQTPGKAPKLLIYNAKTLADGVPSRFSGSGSGTDYTFTISSLQPEDIATYYCQHFWSIPYTFGQGTKLQITRTVAAPEIVLTQSPDFQSVTPKEKVTITCRASQNIGSELHWYQQKPDQSPKLLIKYASHSISGVPSRFSGSGSGTDFTLTINGLEAEDAATYYCHQSDTLPHTFGQGTKVDIKRTVAAPSVFIFPPSDEQLKSGTASVVCLLNNFYPREAKVQWKVDNALQSGNSQESVTEQDSKDSTYSLSSTLTLSKADYEKHKVYACEVTHQGLSSPVTKSFNRGEC
notes: V1/V2 vectors: wild type hIgG1, kappa
B7: DVD1641 (bispecific antibody, human IgG1, kappa)
heavy: not shown
light: B6 light
notes: as for B6
B8: DVD1643 (bispecific antibody, human IgG1, kappa)
heavy: not shown
light: B1 light with D141N, P156S, T168I, G197A, T204S, S206T, Y209H, P213Q
notes: DVD-Ig: outer AB270, inner AB275; V1/V2 vectors: wild type hIgG1, kappa
B9: DVD1645 (bispecific antibody, human IgG1, kappa)
heavy: not shown
light: B3 light with D141N, P156S, T168I, G197A, T204S, S206T, Y209H, P213Q
notes: DVD-Ig: outer AB271, inner AB275; V1/V2 vectors: wild type hIgG1, kappa
B10: DVD1647 (bispecific antibody, human IgG1, kappa)
heavy: not shown
light: B1 light with D1E, Q3T, D141N, P156S, T168I, G197A, T204S, S206T, Y209H, P213Q
notes: DVD-Ig: outer AB272, inner AB275; V1/V2 vectors: wild type hIgG1, kappa
B11: DVD1629 (bispecific antibody, human IgG1, kappa)
heavy: not shown
light: B6 light with N141D, S156P, I168T, A197G, S204T, T206S, H209Y, Q213P
notes: V1 wt hIgG1, V2 kappa; also called DVD1629H; DVD1629L
B12: DVD1631 (bispecific antibody, human IgG1, kappa)
heavy: not shown
light: B6 light with N141D, S156P, I168T, A197G, S204T, T206S, H209Y, Q213P
notes: V1 wt hIgG1, V2 kappa; also called DVD1631H; DVD1631L

target: T3, Recombinant Human IL-1β (human, UniProt P01584 117-269); experiment: cell-based or functional assay

| N-Terminal VD IL-1β Neutralization Assay EC50 [nM] | C-Terminal VD IL-1β Neutralization Assay EC50 [nM] | Binder |
| --- | --- | --- |
| 0.371 | – | B1 |
| – | > 12 | B2 |
| 0.24 | – | B3 |
| – | 27.1 | B4 |
| 0.552 | – | B5 |
| 0.0113 | – | B6 |
| 0.0786 | – | B7 |
| 0.465 | – | B8 |
| 0.417 | – | B9 |
| 0.152 | – | B10 |

target: T1, Recombinant Human IL-17; experiment: cell-based or functional assay

| C-terminal VD IL-17 Neutralization Assay EC50 [nM] | N-terminal VD IL-17 Neutralization Assay EC50 [nM] | Binder |
| --- | --- | --- |
| 0.146 | – | B1 |
| – | 0.0241 | B2 |
| 0.127 | – | B3 |
| – | 0.0075 | B4 |
| 0.0271 | – | B5 |
| 2.61 | – | B6 |
| 1.87 | – | B7 |
| 0.121 | – | B8 |
| 0.15 | – | B9 |
| 0.34 | – | B10 |

target: T2, Recombinant Human IL-17; experiment: Biacore SPR; C-terminal VD
Summary of the method: (§1)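 Antibodies or DVD-Ig were captured at 25 μg/ml on an amine-coupled goat anti-mouse IgG (Fcγ) CM5 surface, with a blank dextran reference. Antigen was injected at 10−200 nM in HBS-EP pH 7.4 at 25° C. A global 1:1 Langmuir fit gave kon and koff, and KD = koff/kon.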

| Kd [nM] | koff [s⁻¹] | kon [M⁻¹ s⁻¹] | Binder |
| --- | --- | --- | --- |
| ≤ 0.00011 | < 1e-06 | 1.4e+06 | B11 |
| ≤ 0.00014 | < 1e-06 | 250000 | B12 |

target: T3, Recombinant Human IL-1β; experiment: Biacore SPR; C-terminal VD
Summary of the method: as §1

| Kd [nM] | koff [s⁻¹] | kon [M⁻¹ s⁻¹] | Binder |
| --- | --- | --- | --- |
| 0.63 | 0.00055 | 870000 | B2 |
| 0.6 | 0.00063 | 1e+06 | B4 |

target: T1, Recombinant Human IL-17; experiment: Biacore SPR; C-terminal VD
Summary of the method: as §1

| Kd [nM] | koff [s⁻¹] | kon [M⁻¹ s⁻¹] | Binder |
| --- | --- | --- | --- |
| < 0.0063 | < 1e-06 | 160000 | B1 |
| 0.14 | 4.9e-05 | 360000 | B3 |
| ≤ 0.0025 | < 1e-06 | 230000 | B5 |
| ≤ 0.0028 | ≤ 1e-06 | 370000 | B6 |
| 0.27 | 2.2e-05 | 84000 | B7 |
| 0.52 | 9.4e-05 | 180000 | B8 |
| 0.65 | 8.1e-05 | 120000 | B9 |
| 0.53 | 9e-05 | 170000 | B10 |

target: T4, Recombinant Human IL-1β (human, UniProt P01584 117-269); experiment: Biacore SPR; N-terminal VD
T4 construct: bought reagent; also called IL-1B
Summary of the method: as §1

| Kd [nM] | koff [s⁻¹] | kon [M⁻¹ s⁻¹] | Binder |
| --- | --- | --- | --- |
| 0.039 | 7.3e-05 | 1.9e+06 | B11 |
| 0.017 | 2.2e-05 | 1.3e+06 | B12 |

target: T3, Recombinant Human IL-1β; experiment: Biacore SPR; N-terminal VD
Summary of the method: as §1

| Kd [nM] | koff [s⁻¹] | kon [M⁻¹ s⁻¹] | Binder |
| --- | --- | --- | --- |
| 0.063 | 0.00057 | 9e+06 | B1 |
| 0.06 | 0.00045 | 7.6e+06 | B3 |
| 0.075 | 0.00059 | 7.9e+06 | B5 |
| 0.045 | 5.6e-05 | 1.2e+06 | B6 |
| 0.018 | 1.9e-05 | 1e+06 | B7 |
| 0.074 | 0.00048 | 6.5e+06 | B8 |
| 0.08 | 0.00056 | 7e+06 | B9 |
| 0.083 | 0.00059 | 7.1e+06 | B10 |

target: T1, Recombinant Human IL-17; experiment: Biacore SPR; N-terminal VD
Summary of the method: as §1

| Kd [nM] | koff [s⁻¹] | kon [M⁻¹ s⁻¹] | Binder |
| --- | --- | --- | --- |
| 0.0052 | 1.9e-05 | 3.7e+06 | B2 |
| 0.0046 | 1.9e-05 | 4.1e+06 | B4 |
